Experimental data: US20150119341A1
[ ]: non-standard residue; d: D form. Nle = CCCC[C@H](N)C(=O)O

How the values were obtained:
[1] = biological target: recombinant human melanocortin-1 receptor (hMCR-1a) in membrane homogenates of HEK-293 cells (human) (UniProt Q01726); test: competitive inhibition of [I125]-NDP-alpha-MSH, hMCR-1 HEK-293 membranes
[2] = biological target: recombinant human melanocortin-4 receptor (hMCR-4) in membrane homogenates of HEK-293 cells (human) (UniProt P32245); test: competitive inhibition of [I125]-NDP-alpha-MSH, hMCR-4 HEK-293 membranes
recombinant human melanocortin-4 receptor (hMCR-4) in membrane homogenates of HEK-293 cells (human), sequence (P32245 whole entry): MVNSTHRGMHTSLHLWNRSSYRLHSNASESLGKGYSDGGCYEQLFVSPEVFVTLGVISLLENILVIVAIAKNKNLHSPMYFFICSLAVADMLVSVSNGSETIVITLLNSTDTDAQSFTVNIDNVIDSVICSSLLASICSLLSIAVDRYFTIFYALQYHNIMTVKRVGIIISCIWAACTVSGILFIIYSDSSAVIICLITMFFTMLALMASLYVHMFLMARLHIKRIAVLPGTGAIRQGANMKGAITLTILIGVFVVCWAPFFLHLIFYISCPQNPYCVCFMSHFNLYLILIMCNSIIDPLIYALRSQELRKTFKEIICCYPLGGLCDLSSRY

recombinant human melanocortin-1 receptor (hMCR-1a) in membrane homogenates of HEK-293 cells (human), sequence (Q01726 whole entry): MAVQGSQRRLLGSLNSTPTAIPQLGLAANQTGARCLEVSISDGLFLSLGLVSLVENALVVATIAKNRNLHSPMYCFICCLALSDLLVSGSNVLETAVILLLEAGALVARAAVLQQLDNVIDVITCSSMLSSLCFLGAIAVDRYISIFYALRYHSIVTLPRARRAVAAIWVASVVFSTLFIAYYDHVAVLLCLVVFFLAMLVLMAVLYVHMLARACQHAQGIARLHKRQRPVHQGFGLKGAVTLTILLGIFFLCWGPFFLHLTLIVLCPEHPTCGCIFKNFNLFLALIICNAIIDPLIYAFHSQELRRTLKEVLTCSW

Ki [1] [nM]	Ki [2] [µM]	Substance
1290	7.12	Ac-[Nle][dF]RAW-NH2
20	10	Ac-[Nle]AH[dF]R[dP][dW]-NH2
